Measured values as given in article PMC13365404 (npj Viruses, 2026).

Key:
Conditions in all cases: one partner purified
[1] = biological target: T1, BDBV GP, full-length transmembrane glycoprotein expressed on MDCK SIAT-1 cells (Bundibugyo virus, Butalya-811250 …, UniProt B8XCN0); assay: immunoprecipitation
[2] = biological target: T2, TAFV GP, full-length transmembrane glycoprotein expressed on MDCK SIAT-1 cells (Taï Forest virus (YP_003815426.1), UniProt Q66810); assay: immunoprecipitation
[3] = biological target: RESTV GP expressed on MDCK SIAT-1 cells (Reston virus, isolate ; …, UniProt Q66799); assay: immunostaining of cells or tissue
[4] = biological target: T3, EBOV GP (Mayinga), full-length transmembrane glycoprotein expressed on MDCK SIAT-1 cells (Ebola virus, Mayinga (NP_066246.1), UniProt Q05320); assay: immunostaining of cells or tissue
[5] = biological target: T4, SUDV GP, full-length transmembrane glycoprotein expressed on MDCK SIAT-1 cells (Sudan virus, Gulu 2000 (YP_138523.1), UniProt Q7T9D9); assay: immunostaining of cells or tissue
T4 construct: source: MDCK SIAT-1 cell line expressing GP (generated previously), on the cell surface

[6] = biological target: T3, EBOV GP (Mayinga), full-length …; assay: immunoprecipitation
[7] = biological target: T1, BDBV GP, full-length transmembrane …; assay: immunostaining of cells or tissue
[8] = biological target: T2, TAFV GP, full-length transmembrane …; assay: immunostaining of cells or tissue

Measured: binding result

B1: mAb 11886 (recombinant rabbit IgG) (antibody, V domains shown)
VH: QSVEESGGRLVTPGTPLTLTCIVSGFSLSNYYMSWVRQVPGKGLEWIGVIGWSGTSSYASWAKGRFTISKTASTTVDLKITSPTTEDTATYFCARVLYIGGGFNYYDAFDPWGPGTLVTVS
VL: DVVMTQTPASVSEPVGGTVTIKCQASQSIGSNLAWYQQKPGQPPKLLIYAASTLASGVPSRFKGSGSGTEFTLTISDLECADAATYYCQCTYYDSSYVYNNFGGGTEVVVK
notes: source: HEK293F, transfected, purified (Protein A)
binds: [1] | [2] | [3] | [4] | [5]

B2: mAb 11883 (recombinant rabbit IgG) (antibody, V domains shown)
VH: QEQLVESGGGLVQPEGSLTLTCTASGFSFSSNCWRCWVRQAPGKGLEWIACVCAGRSGGTTYYASWAKGRFTISKTSSPTVTLQMTSLTAADTATYFCARAGYDDYGDASFFNLWGPGTLVTVS
VL: AVVLTQTASPVSTPVGGTVTIKCQASQNIYSNLAWYQQKPGQPPKLLIYSASTLASGVPSRFKGSGSGTEYTLTISDLECADAATYYCQRYYYLSGSADNTFGGGTEVVVK
notes: as for B1
binds: [6] | [7] | [3] | [8] | [5]
